Measurements: US20150374794A1 (Novo Nordisk, published 2015)
Numbered stars: 1 amine (or outer) side, 2 acyl side, 3 side chain; on linkers, the order of the positions; unused ones are H or OH. Square brackets hold non-standard residues; d marks the D form. Side chains are listed from the residue outwards. Ends that are not written are not given here. * marks the point of attachment. C18 diacid = O=C(O)CCCCCCCCCCCCCCCCC(=O)*; γGlu = O=C(O)[C@H](CCC(=O)[*:2])N[*:1]; AEEA = NCCOCCOCC(=O)O; Ac3c = NC1(C(=O)O)CC1; Aib = CC(C)(N)C(=O)O

B1: N^ε16-[(4S)-4-carboxy-4-[[(4S)-4-carboxy-4-[[2-[2-[2-[[(4S)-4-carboxy-4-[[(4S)-4-carboxy-4-(17-carboxyheptadecanoylamino)butanoyl]amino]butanoyl]amino]ethoxy]et … (peptide)
peptide: H[Aib]QGTFTSDLSKYLDK([γGlu-γGlu-AEEA-γGlu-γGlu-C18 diacid])RRAQEFVQWLVKG-NH2
modifications: N-terminus assumed
SMILES: CC(C)C[C@H](NC(=O)[C@H](Cc1ccc(O)cc1)NC(=O)[C@H](CCCCN)NC(=O)[C@H](CO)NC(=O)[C@H](CC(C)C)NC(=O)[C@H](CC(=O)O)NC(=O)[C@H](CO)NC(=O)[C@@H](NC(=O)[C@H](Cc1ccccc1)NC(=O)[C@@H](NC(=O)CNC(=O)[C@H](CCC(N)=O)NC(=O)C(C)(C)NC(=O)[C@@H](N)Cc1c[nH]cn1)[C@@H](C)O)[C@@H](C)O)C(=O)N[C@@H](CC(=O)O)C(=O)N[C@@H](CCCCNC(=O)CC[C@H](NC(=O)CC[C@H](NC(=O)COCCOCCNC(=O)CC[C@H](NC(=O)CC[C@H](NC(=O)CCCCCCCCCCCCCCCCC(=O)O)C(=O)O)C(=O)O)C(=O)O)C(=O)O)C(=O)N[C@@H](CCCNC(=N)N)C(=O)N[C@@H](CCCNC(=N)N)C(=O)N[C@@H](C)C(=O)N[C@@H](CCC(N)=O)C(=O)N[C@@H](CCC(=O)O)C(=O)N[C@@H](Cc1ccccc1)C(=O)N[C@H](C(=O)N[C@@H](CCC(N)=O)C(=O)N[C@@H](Cc1c[nH]c2ccccc12)C(=O)N[C@@H](CC(C)C)C(=O)N[C@H](C(=O)N[C@@H](CCCCN)C(=O)NCC(N)=O)C(C)C)C(C)C
B2: N^ε28-[(4S)-4-carboxy-4-[[(4S)-4-carboxy-4-[[2-[2-[2-[[2-[2-[2-[[(4S)-4-carboxy-4-(17-carboxyheptadecanoylamino)butanoyl]amino]ethoxy]ethoxy]acetyl]amino]ethoxy … (peptide)
peptide: H[Aib]QGTFTSDLSKYLD[Aib]RRAREFVQWLLK([γGlu-γGlu-AEEA-AEEA-γGlu-C18 diacid])T-NH2
modifications: N-terminus assumed
SMILES: CC(C)C[C@H](NC(=O)[C@H](Cc1c[nH]c2ccccc12)NC(=O)[C@H](CCC(N)=O)NC(=O)[C@@H](NC(=O)[C@H](Cc1ccccc1)NC(=O)[C@H](CCC(=O)O)NC(=O)[C@H](CCCNC(=N)N)NC(=O)[C@H](C)NC(=O)[C@H](CCCNC(=N)N)NC(=O)[C@H](CCCNC(=N)N)NC(=O)C(C)(C)NC(=O)[C@H](CC(=O)O)NC(=O)[C@H](CC(C)C)NC(=O)[C@H](Cc1ccc(O)cc1)NC(=O)[C@H](CCCCN)NC(=O)[C@H](CO)NC(=O)[C@H](CC(C)C)NC(=O)[C@H](CC(=O)O)NC(=O)[C@H](CO)NC(=O)[C@@H](NC(=O)[C@H](Cc1ccccc1)NC(=O)[C@@H](NC(=O)CNC(=O)[C@H](CCC(N)=O)NC(=O)C(C)(C)NC(=O)[C@@H](N)Cc1c[nH]cn1)[C@@H](C)O)[C@@H](C)O)C(C)C)C(=O)N[C@@H](CC(C)C)C(=O)N[C@@H](CCCCNC(=O)CC[C@H](NC(=O)CC[C@H](NC(=O)COCCOCCNC(=O)COCCOCCNC(=O)CC[C@H](NC(=O)CCCCCCCCCCCCCCCCC(=O)O)C(=O)O)C(=O)O)C(=O)O)C(=O)N[C@H](C(N)=O)[C@@H](C)O
B3: N^ε29-[(4S)-4-carboxy-4-[[(4S)-4-carboxy-4-[[2-[2-[2-[[(4S)-4-carboxy-4-(17-carboxyheptadecanoylamino)butanoyl]amino]ethoxy]ethoxy]acetyl]amino]butanoyl]amino]b … (peptide)
peptide: H[Aib]QGTFTSDLSKYLDLRRAREFVQWLLNK([γGlu-γGlu-AEEA-γGlu-C18 diacid])-NH2
modifications: N-terminus assumed
SMILES: CC(C)C[C@H](NC(=O)[C@H](CC(C)C)NC(=O)[C@H](Cc1c[nH]c2ccccc12)NC(=O)[C@H](CCC(N)=O)NC(=O)[C@@H](NC(=O)[C@H](Cc1ccccc1)NC(=O)[C@H](CCC(=O)O)NC(=O)[C@H](CCCNC(=N)N)NC(=O)[C@H](C)NC(=O)[C@H](CCCNC(=N)N)NC(=O)[C@H](CCCNC(=N)N)NC(=O)[C@H](CC(C)C)NC(=O)[C@H](CC(=O)O)NC(=O)[C@H](CC(C)C)NC(=O)[C@H](Cc1ccc(O)cc1)NC(=O)[C@H](CCCCN)NC(=O)[C@H](CO)NC(=O)[C@H](CC(C)C)NC(=O)[C@H](CC(=O)O)NC(=O)[C@H](CO)NC(=O)[C@@H](NC(=O)[C@H](Cc1ccccc1)NC(=O)[C@@H](NC(=O)CNC(=O)[C@H](CCC(N)=O)NC(=O)C(C)(C)NC(=O)[C@@H](N)Cc1c[nH]cn1)[C@@H](C)O)[C@@H](C)O)C(C)C)C(=O)N[C@@H](CC(N)=O)C(=O)N[C@@H](CCCCNC(=O)CC[C@H](NC(=O)CC[C@H](NC(=O)COCCOCCNC(=O)CC[C@H](NC(=O)CCCCCCCCCCCCCCCCC(=O)O)C(=O)O)C(=O)O)C(=O)O)C(N)=O
B4: N^ε29-[(4S)-4-carboxy-4-[[(4S)-4-carboxy-4-[[2-[2-[2-[[(4S)-4-carboxy-4-(17-carboxyheptadecanoylamino)butanoyl]amino]ethoxy]ethoxy]acetyl]amino]butanoyl]amino]b … (peptide)
peptide: H[Aib]QGTFTSDLSKYLESRRAREFVQWLLNK([γGlu-γGlu-AEEA-γGlu-C18 diacid])-NH2
modifications: N-terminus assumed
SMILES: CC(C)C[C@H](NC(=O)[C@H](CC(C)C)NC(=O)[C@H](Cc1c[nH]c2ccccc12)NC(=O)[C@H](CCC(N)=O)NC(=O)[C@@H](NC(=O)[C@H](Cc1ccccc1)NC(=O)[C@H](CCC(=O)O)NC(=O)[C@H](CCCNC(=N)N)NC(=O)[C@H](C)NC(=O)[C@H](CCCNC(=N)N)NC(=O)[C@H](CCCNC(=N)N)NC(=O)[C@H](CO)NC(=O)[C@H](CCC(=O)O)NC(=O)[C@H](CC(C)C)NC(=O)[C@H](Cc1ccc(O)cc1)NC(=O)[C@H](CCCCN)NC(=O)[C@H](CO)NC(=O)[C@H](CC(C)C)NC(=O)[C@H](CC(=O)O)NC(=O)[C@H](CO)NC(=O)[C@@H](NC(=O)[C@H](Cc1ccccc1)NC(=O)[C@@H](NC(=O)CNC(=O)[C@H](CCC(N)=O)NC(=O)C(C)(C)NC(=O)[C@@H](N)Cc1c[nH]cn1)[C@@H](C)O)[C@@H](C)O)C(C)C)C(=O)N[C@@H](CC(N)=O)C(=O)N[C@@H](CCCCNC(=O)CC[C@H](NC(=O)CC[C@H](NC(=O)COCCOCCNC(=O)CC[C@H](NC(=O)CCCCCCCCCCCCCCCCC(=O)O)C(=O)O)C(=O)O)C(=O)O)C(N)=O
B5: N^ε29-[(4S)-4-carboxy-4-[[(4S)-4-carboxy-4-[[2-[2-[2-[[(4S)-4-carboxy-4-(17-carboxyheptadecanoylamino)butanoyl]amino]ethoxy]ethoxy]acetyl]amino]butanoyl]amino]b … (peptide)
peptide: H[Aib]QGTFTSDLSKYLDARRAREFVQWLLNK([γGlu-γGlu-AEEA-γGlu-C18 diacid])-NH2
modifications: N-terminus assumed
SMILES: CC(C)C[C@H](NC(=O)[C@H](Cc1ccc(O)cc1)NC(=O)[C@H](CCCCN)NC(=O)[C@H](CO)NC(=O)[C@H](CC(C)C)NC(=O)[C@H](CC(=O)O)NC(=O)[C@H](CO)NC(=O)[C@@H](NC(=O)[C@H](Cc1ccccc1)NC(=O)[C@@H](NC(=O)CNC(=O)[C@H](CCC(N)=O)NC(=O)C(C)(C)NC(=O)[C@@H](N)Cc1c[nH]cn1)[C@@H](C)O)[C@@H](C)O)C(=O)N[C@@H](CC(=O)O)C(=O)N[C@@H](C)C(=O)N[C@@H](CCCNC(=N)N)C(=O)N[C@@H](CCCNC(=N)N)C(=O)N[C@@H](C)C(=O)N[C@@H](CCCNC(=N)N)C(=O)N[C@@H](CCC(=O)O)C(=O)N[C@@H](Cc1ccccc1)C(=O)N[C@H](C(=O)N[C@@H](CCC(N)=O)C(=O)N[C@@H](Cc1c[nH]c2ccccc12)C(=O)N[C@@H](CC(C)C)C(=O)N[C@@H](CC(C)C)C(=O)N[C@@H](CC(N)=O)C(=O)N[C@@H](CCCCNC(=O)CC[C@H](NC(=O)CC[C@H](NC(=O)COCCOCCNC(=O)CC[C@H](NC(=O)CCCCCCCCCCCCCCCCC(=O)O)C(=O)O)C(=O)O)C(=O)O)C(N)=O)C(C)C
B6: N^ε28-[(4S)-4-carboxy-4-[[(4S)-4-carboxy-4-[[2-[2-[2-[[2-[2-[2-[[(4S)-4-carboxy-4-(17-carboxyheptadecanoylamino)butanoyl]amino]ethoxy]ethoxy]acetyl]amino]ethoxy … (peptide)
peptide: H[Ac3c]QGTFTSDLSKYLESRRAREFVQWLLK([γGlu-γGlu-AEEA-AEEA-γGlu-C18 diacid])T-NH2
modifications: N-terminus assumed
SMILES: CC(C)C[C@H](NC(=O)[C@H](Cc1ccc(O)cc1)NC(=O)[C@H](CCCCN)NC(=O)[C@H](CO)NC(=O)[C@H](CC(C)C)NC(=O)[C@H](CC(=O)O)NC(=O)[C@H](CO)NC(=O)[C@@H](NC(=O)[C@H](Cc1ccccc1)NC(=O)[C@@H](NC(=O)CNC(=O)[C@H](CCC(N)=O)NC(=O)C1(NC(=O)[C@@H](N)Cc2c[nH]cn2)CC1)[C@@H](C)O)[C@@H](C)O)C(=O)N[C@@H](CCC(=O)O)C(=O)N[C@@H](CO)C(=O)N[C@@H](CCCNC(=N)N)C(=O)N[C@@H](CCCNC(=N)N)C(=O)N[C@@H](C)C(=O)N[C@@H](CCCNC(=N)N)C(=O)N[C@@H](CCC(=O)O)C(=O)N[C@@H](Cc1ccccc1)C(=O)N[C@H](C(=O)N[C@@H](CCC(N)=O)C(=O)N[C@@H](Cc1c[nH]c2ccccc12)C(=O)N[C@@H](CC(C)C)C(=O)N[C@@H](CC(C)C)C(=O)N[C@@H](CCCCNC(=O)CC[C@H](NC(=O)CC[C@H](NC(=O)COCCOCCNC(=O)COCCOCCNC(=O)CC[C@H](NC(=O)CCCCCCCCCCCCCCCCC(=O)O)C(=O)O)C(=O)O)C(=O)O)C(=O)N[C@H](C(N)=O)[C@@H](C)O)C(C)C

Each binder was assayed against T1, human GLP-1 receptor (human, UniProt P43220 24-463) (assay: cell-based or functional assay).
With B1 the “EC50 GLP-1R, CRE luciferase reporter gene assay in BHK cells” value (“EC50 GLP-1R” for short) was 29.5 pM.
With B2 the “EC50 GLP-1R” value was 6 pM.
For B3, the “EC50 GLP-1R” value was 13 pM.
For B4, the “EC50 GLP-1R” value was 4 pM.
In the case of B5, the “EC50 GLP-1R” value is reported as 4 pM.
For B6, the “EC50 GLP-1R” value was 11 pM.

What follows are binders tested against T2, human glucagon receptor (human, UniProt P47871 26-477) (assay: cell-based or functional assay).
T2 sequence (P47871 26-477): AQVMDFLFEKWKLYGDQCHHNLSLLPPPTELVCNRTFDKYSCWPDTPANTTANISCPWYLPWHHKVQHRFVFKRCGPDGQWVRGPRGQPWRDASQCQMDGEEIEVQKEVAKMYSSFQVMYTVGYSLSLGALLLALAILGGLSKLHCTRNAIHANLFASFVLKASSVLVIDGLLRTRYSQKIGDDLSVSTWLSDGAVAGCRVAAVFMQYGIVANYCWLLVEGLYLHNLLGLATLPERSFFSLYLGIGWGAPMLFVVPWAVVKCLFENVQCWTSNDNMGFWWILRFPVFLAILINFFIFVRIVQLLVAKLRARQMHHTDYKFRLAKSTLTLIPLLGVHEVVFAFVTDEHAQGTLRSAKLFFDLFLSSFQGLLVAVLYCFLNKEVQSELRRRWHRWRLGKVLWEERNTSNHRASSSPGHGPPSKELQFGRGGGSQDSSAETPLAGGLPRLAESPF
For B1, the “EC50 GlucR, CRE luciferase reporter gene assay in BHK cells” value (“EC50 GlucR” below) was 1330 pM.
With B2 the “EC50 GlucR” value was 4 pM.
B3 was tested, and the “EC50 GlucR” value was 24 pM.
With B4 the “EC50 GlucR” value was 136 pM.
For B5, the “EC50 GlucR” value was 12 pM.
With B6 the “EC50 GlucR” value was 280 pM.

These binders were tested against T1, human GLP-1 receptor (assay: displacement of 125I-GLP-1(7-36)NH2, membranes with human GLP-1R, SPA).
Method: (§1) The receptor binding of each compound to the human GLP-1 receptor was measured in a displacement binding assay. […] Each derivative was added in a series of concentrations to isolated membranes containing the human GLP-1 receptor and displacement of the labelled ligand was monitored. The receptor binding was reported as the concentration at which half of the labelled ligand was displaced from the receptor, the IC₅₀ value.
Binder B1 has an IC50 of 1600 pM.
B2 was tested, and the IC50 was 700 pM.
B3 gave an IC50 of 1200 pM.
Work on B4 yielded an IC50 of 400 pM.
With B5 the IC50 was 300 pM.
B6 gave an IC50 of 2200 pM.

These binders were tested against T2, human glucagon receptor (assay: displacement of 125I-glucagon, membranes with human glucagon receptor, SPA).
Method: as §1, with “human glucagon” for “human GLP-1”, “ligand is” for “ligand was”
In the case of B1, the IC50 is reported as 148000 pM.
B2 gave an IC50 of 1400 pM.
B3 was tested, and the IC50 was 29400 pM.
In the case of B4, the IC50 is reported as 37700 pM.
With B5 the IC50 was 5600 pM.
Binder B6 has an IC50 of 26200 pM.
